{"source": "patent US20230338569A1", "about": "“NaPi2b-TARGETED POLYMER ANTIBODY-DRUG CONJUGATE FOR THE TREATMENT OF OVARIAN CANCER” (Mersana Therapeutics, Inc., priority 2021, published 2023)", "molecules": {"B1": {"name": "XMT-1536: NaPi2b-targeted polymer antibody-drug conjugate: about 8-12 AF-HPA molecules conjugated to cysteines of antibody XMT-1535 via a PHF scaffold (conjugate, chains of the INN, looked up)", "VH": "QVQLVQSGAEVVKPGASVKMSCKASGYTFTGYNIHWVKQAPGQGLEWIGAIYPGNGDTSYKQKFRGRATLTADTSTSTVYMELSSLRSEDSAVYYCARGETARATFAYWGQGTLVTVSS", "VL": "DIQMTQSPSSLSASVGDRVTITCSASQDIGNFLNWYQQKPGKTVKVLIYYTSSLYSGVPSRFSGSGSGTDYTLTISSLQPEDFATYYCQQYSKLPLTFGQGTKLELK", "modifications": "AF-HPA payload via PHF polymer scaffold", "notes": "NaPi2b-targeted polymer antibody-drug conjugate: about 8-12 AF-HPA molecules conjugated to cysteines of antibody XMT-1535 via a PHF scaffold"}}, "tested_on": "patients with higher NaPi2b expression", "assay": "MER-XMT-1536-1 clinical trial (ongoing, preliminary data), XMT-1536 monotherapy", "type": "in vivo, human", "conditions": "patients with higher NaPi2b expression (n=47); preliminary data from MER-XMT-1536-1", "data": [{"molecule": "B1", "values": [{"measurement": "DCR (disease control rate)", "result": 74, "unit": "%"}, {"measurement": "ORR (objective response rate)", "result": 32, "unit": "%"}, {"measurement": "median duration of response", "result": "approximately 5 months"}]}]}
